T1: PTH receptor of UMR106 cell line (rat osteoblast-like osteosarcoma cell line) (rat, UniProt P25961 27-591)
T1 construct: whole, on cells; The species follows from the cell line (rat); also called its receptor; the receptor
T1 sequence (looked up): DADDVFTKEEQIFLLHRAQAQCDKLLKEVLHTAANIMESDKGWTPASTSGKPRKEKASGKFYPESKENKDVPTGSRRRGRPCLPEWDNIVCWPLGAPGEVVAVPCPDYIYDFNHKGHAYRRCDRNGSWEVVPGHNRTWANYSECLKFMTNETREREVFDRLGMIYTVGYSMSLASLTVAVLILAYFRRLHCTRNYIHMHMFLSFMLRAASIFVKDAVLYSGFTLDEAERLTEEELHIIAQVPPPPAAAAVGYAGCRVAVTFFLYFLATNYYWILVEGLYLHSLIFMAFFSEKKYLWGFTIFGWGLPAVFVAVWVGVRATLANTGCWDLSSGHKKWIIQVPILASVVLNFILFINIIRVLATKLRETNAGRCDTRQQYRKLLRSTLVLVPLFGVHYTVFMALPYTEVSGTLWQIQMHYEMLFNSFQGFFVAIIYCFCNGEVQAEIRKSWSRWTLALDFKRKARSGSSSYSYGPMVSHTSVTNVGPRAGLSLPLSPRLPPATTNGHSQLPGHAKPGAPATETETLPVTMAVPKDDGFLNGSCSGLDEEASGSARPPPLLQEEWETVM

B1: synthetic human PTH (shPTH (1-84), Sigma Chemical Co., USA) (ligand, UniProt P01270 32-115, looked up)
chain: SVSEIQLMHNLGKHLNSMERVEWLRKKLQDVHNFVALGAPLAPRDAGSQRPRKKEDNVLVESHEKSLGEADKADVNVLTKAKSQ
notes: mature; Control hormone, bought; also called synthetic PTH
B2: human recombinant PTH (rhPTH (1-84)) (ligand, UniProt P01270 32-115, looked up)
chain: SVSEIQLMHNLGKHLNSMERVEWLRKKLQDVHNFVALGAPLAPRDAGSQRPRKKEDNVLVESHEKSLGEADKADVNVLTKAKSQ
notes: mature; also called recombinant human PTH; purified human PTH

Legend:
[1] = molecular target: T1, PTH receptor of UMR106 cell line (rat …); test: competition with 125I-(Nle8,18Tyr34)-bPTH (1-34) for binding to UMR106 cells, 15 C, 4 h
Protocol: A binding test to PTH receptor was carried out as followings (see: Chohei Shigeno et al., The Journal of Biological Chemistry, 263(8):3864–3871(1988)): 10^5 UMR106 cells per well was added into a 24 well-plate and cultured for 4 to 8 days. Medium was exchanged every two days and it was exchanged daily at 3 days before the test. On the other hand, in order to prepare (Nle^{8,18}Tyr^34)-bovine PTH (1–34)-NH_2(bPTH (1–34)) (see: Gino V. Segre et al., JBC, 254(15) :6980–6986(1979)) which was labelled with a radioactive isotope, ^125I at a tyrosine residue of carboxy-terminus, bPTH (1–34) was iodinated with Na^125I using chloramine T (Sigma Chemical Co., USA) as a catalyst. […]
Binding affinity of PTH to its receptor was determined by comparing competitive inhibition of rhPTH (1–84) and shPTH (1–84) against ligand binding to the receptor by using the ^125I-labelled (Nle^{8,18}Tyr^34)-bPTH (1–34) as a ligand. […] The solution obtained after extraction was mixed with the solution obtained after washing with 0.5 ml of the binding buffer and counted for its radioactivity employing γ-counter.
Specific binding was determined by subtracting value of nonspecific binding measured by using each competitive hormone of 1 mM from value of binding radioactivity measured above.

[2] = molecular target: T1, PTH receptor of UMR106 cell line (rat …); test: cell-based or functional assay

| Binder | IC50 [1] [nM] | EC50 (concentration of hormone required for stimulating production of intracellular cAMP to reach an increase of 50%) [2] [nM] |
| --- | --- | --- |
| B1 | 18.6 | 1.9 |
| B2 | 17.3 | 1.3 |
